The source of these data is patent US20110052677A1 (RESEARCH DEVELOPMENT FOUNDATION, published 2011).

The target in the assay is T1, native SRPX2 of tEnd1.V^high mouse angiogenic endothelioma cells (mouse, UniProt Q8R054 26-468).
T1 construct: Endogenous protein from a mouse endothelioma cell line; also called native SPRXb 2; Sushi repeat-containing protein, X-linked, 2
T1 sequence (looked up): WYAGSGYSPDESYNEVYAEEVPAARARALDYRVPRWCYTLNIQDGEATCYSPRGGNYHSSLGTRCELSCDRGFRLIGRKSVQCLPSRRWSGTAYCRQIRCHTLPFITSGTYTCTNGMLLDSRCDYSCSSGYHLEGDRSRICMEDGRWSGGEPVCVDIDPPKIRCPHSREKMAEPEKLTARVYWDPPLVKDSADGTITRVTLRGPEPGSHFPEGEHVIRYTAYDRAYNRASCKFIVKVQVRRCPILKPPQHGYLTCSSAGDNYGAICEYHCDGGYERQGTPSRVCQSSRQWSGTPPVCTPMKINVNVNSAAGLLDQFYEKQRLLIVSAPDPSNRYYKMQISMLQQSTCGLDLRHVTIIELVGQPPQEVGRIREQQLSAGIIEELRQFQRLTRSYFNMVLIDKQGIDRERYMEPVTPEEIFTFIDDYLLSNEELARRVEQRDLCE
As to the kind of experiment: anti-uPAR immunoprecipitate from tEnd1.V^high lysate, blot re-probed with rabbit anti-SRPX2 antibody. As for the experimental part: Pull down assay of SRPX2 by uPAR—The tEnd1.V^high cells were cell surface biotinylated (0.5 mg/ml of biotin in DPBS) for 15 min, blocked with 10% FCS in PBS and lysed in lysis buffer with addition of 0.5% CHAPS and proteinase inhibitors (Sigma). Pre-clearing was preformed subsequently with the protein G beads (40 μl beads/1 ml lysate) (Protein G Sepharose 4 fast flow, General Electrics) for 3×5 min at RT. Immuno-precipitation was performed by adding sheep anti-uPAR antibodies, precipitated with protein G beads and eluted with a lysis buffer. Immunoblots were preformed with sheep anti-uPAR antibodies and detected by anti-sheep HRP labeled antibodies and visualized by ECL.

B1: vascular urokinase-type plasminogen activator receptor (uPAR) of tEnd1.V^high cells (receptor, mouse, UniProt P35456 24-298, looked up)
chain: LQCMQCESNQSCLVEECALGQDLCRTTVLREWQDDRELEVVTRGCAHSEKTNRTMSYRMGSMIISLTETVCATNLCNRPRPGARGRAFPQGRYLECASCTSLDQSCERGREQSLQCRYPTEHCIEVVTLQSTERSLKDEDYTRGCGSLPGCPGTAGFHSNQTFHFLKCCNYTHCNGGPVLDLQSFPPNGFQCYSCEGNNTLGCSSEEASLINCRGPMNQCLVATGLDVLGNRSYTVRGCATASWCQGSHVADSFPTHLNVSVSCCHGSGCNSPTG
notes: whole, on cells; Native GPI-linked receptor, immunoprecipitated from cell lysate after cell-surface biotinylation; Species is inferred from the mouse cell line; also called vascular uPAR; native uPAR
Take B1: the binding result is “binds”.
